# Assay results: US20100159032A1
# Key:
# [1] = molecular target: Glucagon(3-29) (Homo sapiens (Human)) (UniProt P01275)
# [2] = molecular target: Gln^3-Aβ(3-11)a, Gln^3-amyloid β-peptide(3-11)a (Artificial Sequence)
# [3] = molecular target: Gln^3-Aβ(3-40), Gln^3-amyloid β-peptide(3-40) (Artificial Sequence)
# [4] = molecular target: Gln^3-Aβ(3-21)a, Gln^3-amyloid β-peptide(3-21)a (Artificial Sequence)
substance,measurement,setting,value
recombinant human QC (glutaminyl cyclase) (from UniProt Q16769) (enzyme),kcat/KM,[1],526000 M⁻¹ s⁻¹
same,kcat/KM,[2],267000 M⁻¹ s⁻¹
same,kcat/KM,[3],449000 M⁻¹ s⁻¹
same,kcat/KM,[4],383000 M⁻¹ s⁻¹
